Measurements: patent US20180112192A1 (NATIONAL TAIWAN UNIVERSITY, published 2018)

Target: T1, Wild-type EGFR-GFP (UniProt P00533 25-1210)
T1 construct: whole, on cells; not shown: GFP fusion
Test: co-localization by confocal and 3D-SIM microscopy, co-overexpression in CL1-5 cells (FIG. 1C)
From the text: FIGS. 1A-1C show interaction between PINK1 and EGFR in lung adenocarcinoma cells. […] 3D-structured illumination microscopy images specifically disclosed the interaction beneath the cytoplasmic membrane (III and IV).

B1: myc-fused full-length PINK1 construct (amino acids 1-581) (enzyme)
chain: MAVRQALGRGLQLGRALLLRFTGKPGRAYGLGRPGPAAGCVRGERPGWAAGPGAEPRRVGLGLPNRLRFFRQSVAGLAARLQRQFVVRAWGCAGPCGRAVFLAFGLGLGLIEEKQAESRRAVSACQEIQAIFTQKSKPGPDPLDTRRLQGFRLEEYLIGQSIGKGCSAAVYEATMPTLPQNLEVTKSTGLLPGRGPGTSAPGEGQERAPGAPAFPLAIKMMWNISAGSSSEAILNTMSQELVPASRVALAGEYGAVTYRKSKRGPKQLAPHPNIIRVLRAFTSSVPLLPGALVDYPDVLPSRLHPEGLGHGRTLFLVMKNYPCTLRQYLCVNTPSPRLAAMMLLQLLEGVDHLVQQGIAHRDLKSDNILVELDPDGCPWLVIADFGCCLADESIGLQLPFSSWYVDRGGNGCLMAPEVSTARPGPRAVIDYSKADAWAVGAIAYEIFGLVNPFYGQGKAHLESRSYQEAQLPALPESVPPDVRQLVRALLQREASKRPSARVAANVLHLSLWGEHILALKNLKLDKMVGWLLQQSAATLLANRLTEKCCVETKMKMLFLANLECETLCQAALLLCSWRAAL
notes: also called PINK1-myc; not shown: myc tag
B1: binds.
